Data taken from US5723579A, “Fibrinogen binding peptides” (Bayer Corporation, priority 1996, dated 1998).
No end group written: not given here.

Key:
fibrinogen [1] = target: T1, fibrinogen (Homo sapiens, UniProt P02671+P02675+P02679); experiment: Confirmatory binding assay in column chromatographic format: fibrinogen applied to peptide resins, NaCl wash and acid eluate quantified by A280; conditions: for 2% Acetic Acid Eluate, A280: peptide synthesized on A-Totda-Toyopearl, Table 2; for 1 M NaCl Eluate, integration of the absorbance at 280 nm / 2% Acetic Acid Eluate, integration of the absorbance at 280 nm: truncations on A-Totda-Toyopearl, Table 6
T1 construct: purchased Sigma Chemical Co. (St. Louis, Mo.) and Chromogenix AB (Molndal, Sweden)
T1 sequence (P02671 20-644 isoform P02671-2 limits assumed): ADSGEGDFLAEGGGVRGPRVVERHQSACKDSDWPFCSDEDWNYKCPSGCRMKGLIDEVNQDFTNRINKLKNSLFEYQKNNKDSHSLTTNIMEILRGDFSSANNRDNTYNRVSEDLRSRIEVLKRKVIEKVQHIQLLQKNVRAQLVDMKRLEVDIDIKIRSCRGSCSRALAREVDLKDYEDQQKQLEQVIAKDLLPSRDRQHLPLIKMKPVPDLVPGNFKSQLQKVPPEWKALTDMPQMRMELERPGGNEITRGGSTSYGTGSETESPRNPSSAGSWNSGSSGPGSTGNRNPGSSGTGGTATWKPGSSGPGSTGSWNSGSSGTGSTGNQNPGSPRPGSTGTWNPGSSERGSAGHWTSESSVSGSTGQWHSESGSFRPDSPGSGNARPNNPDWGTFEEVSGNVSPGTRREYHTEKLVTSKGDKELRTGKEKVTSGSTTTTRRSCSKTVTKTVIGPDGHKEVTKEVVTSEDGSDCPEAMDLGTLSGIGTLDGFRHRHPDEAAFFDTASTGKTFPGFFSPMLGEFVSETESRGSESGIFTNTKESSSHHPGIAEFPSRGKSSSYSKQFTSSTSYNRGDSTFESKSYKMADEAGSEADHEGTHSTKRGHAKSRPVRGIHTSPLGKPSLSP
T1 sequence (P02675 31-491): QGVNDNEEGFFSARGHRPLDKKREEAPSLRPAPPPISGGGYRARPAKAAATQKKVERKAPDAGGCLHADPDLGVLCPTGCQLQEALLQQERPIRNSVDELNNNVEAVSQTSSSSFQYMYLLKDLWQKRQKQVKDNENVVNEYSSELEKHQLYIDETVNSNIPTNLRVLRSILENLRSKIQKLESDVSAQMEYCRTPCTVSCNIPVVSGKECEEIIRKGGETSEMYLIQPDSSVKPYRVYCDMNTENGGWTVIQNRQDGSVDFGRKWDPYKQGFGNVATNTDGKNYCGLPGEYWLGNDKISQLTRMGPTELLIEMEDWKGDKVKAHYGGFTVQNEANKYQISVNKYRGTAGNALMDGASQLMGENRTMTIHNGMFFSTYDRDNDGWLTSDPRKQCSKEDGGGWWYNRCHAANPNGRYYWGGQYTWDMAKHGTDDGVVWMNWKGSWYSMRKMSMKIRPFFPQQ
T1 sequence (P02679 27-453): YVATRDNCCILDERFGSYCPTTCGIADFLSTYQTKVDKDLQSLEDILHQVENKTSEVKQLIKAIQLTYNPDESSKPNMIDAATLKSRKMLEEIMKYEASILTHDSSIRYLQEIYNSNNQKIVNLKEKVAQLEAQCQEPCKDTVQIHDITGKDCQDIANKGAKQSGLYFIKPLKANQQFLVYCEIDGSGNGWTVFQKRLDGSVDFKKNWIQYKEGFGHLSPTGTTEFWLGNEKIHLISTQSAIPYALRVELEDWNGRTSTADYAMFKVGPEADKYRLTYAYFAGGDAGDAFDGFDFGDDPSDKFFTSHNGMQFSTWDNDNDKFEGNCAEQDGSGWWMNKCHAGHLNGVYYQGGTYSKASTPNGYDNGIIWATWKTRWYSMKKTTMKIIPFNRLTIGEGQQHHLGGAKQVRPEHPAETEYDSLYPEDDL
Protocol: Confirmatory binding assays were performed in a column chromatographic format on a microbore HPLC using individual peptide sequences synthesized directly onto the Toyopearl 650M Chelate resin which had been modified with Totda followed by an alanine residue (A-Totda-Toyopearl), at a final substitution density of 0.2 mmole/g resin. […] The endpoint was a dose-dependent increase in the acid eluate in the fibrinogen contactings, and quantification was by integration of the absorbance at 280 nm (Table 2).
Peptides PLLVPL and FLLVPL, with and without an N-acetylated amino terminus, were synthesized directly onto Ala-Totda-Toyopearl at a density of approximately 0.2 mmole/g resin. The ability of these resins to bind fibrinogen was determined as above. An unblocked (free) amino terminus was required for binding fibrinogen to PLLVPL-A-Totda-Toyopearl (Table 5) (SEQ ID NO:2). Similar results were obtained in a separate experiment by using FLLVPL-A-Totda-Toyopearl (Table 5) (SEQ ID NO:1).
Truncations from the carboxyl- and amino- termini of PLLVPL and FLLVPL (SEQ ID NOS 2 and 1, respectively) synthesized directly on A-Totda-Toyopearl resin in order to identify the minimum sequence necessary for binding.

fibrinogen [2] = target: T1, fibrinogen; experiment: Characterization of binding interaction: fibrinogen (25 mg) on 5 ml FLLVPL resin column, binding and elution under varied conditions
Protocol: Peptide FLLVPL was synthesized directly on A-Totda-Toyopearl at a density of 0.2 mmole/g resin. A column of dimensions 1.0×6.4 cm (approximately 5 ml column volume) was equilibrated with either 10 mM HEPES or 10 mM sodium acetate, pH 6.8, 1.0 mM EGTA and either 0.1, 0.2 or 1.0M NaCl. Fibrinogen (25 mg; 5.0 ml) was applied to the column in 10 mM sodium acetate, pH 6.8 and 1 mM EGTA containing 0.1M NaCl.
Fibrinogen (25 mg; 5.0 ml) was applied to the column in 10 mM sodium acetate, pH 6.8 and 1 mM EGTA containing 0.1M NaCl.
No elution of fibrinogen (applied to the column in 10 mM sodium acetate, pH 6.8 and 1 mM EGTA containing 0.1M NaCl) was observed by using the hydrophilic compound, polyethylene glycol (10%). Only approximately 8 percent of the applied fibrinogen was eluted by increasing the pH to 10 with 10 mM sodium borate. Further increases in pH with a linear gradient (pH 6.8 to 12.0) released approximately 25 percent of the fibrinogen.
In order to assess further the contribution of hydrophobic interactions to the binding mechanism of FLLVPL (SEQ ID NO.:1) to fibrinogen, fibrinogen (25 mg; 5.0 ml) was applied to the peptide under high salt conditions favorable to hydrophobic bonding and release under low ionic strength. The peptide resin was equilibrated with 10 mM sodium acetate, 1.0M NaCl, and 1.0 mM EGTA, pH 6.8. Five milliliters of a solution of fibrinogen (5 mg/ml) in the same buffer was applied to the column, and washed with two column volumes of the same buffer. The resin was then contacted with 10 column volumes of 10 mM sodium acetate, pH 4.0 followed by 2% acetic acid (4 column volumes). […] Low ionic strength and low pH (4.0) released approximately 78.3 percent of the protein. However, only 5% of the applied protein was eluted in a second experiment when the 10 mM sodium acetate, pH 4.0 solution contained 0.1M NaCl. Acid treatment released the remainder of the recovered protein in both experiments.

fibrinogen [3] = target: T1, fibrinogen; experiment: Isothermal titration calorimetry of peptide binding to purified fibrinogen; conditions: solution phase binding, soluble peptide; 30° C., 30 mM phosphate buffer, pH 7.0
Protocol: Isothermal titration colorimetry was performed using either purified, soluble peptides (5 mM) or peptides synthesized directly on A-Totda-Togopearl (1.4mM) and with purified fibrinogen (50 μM) by a modification of the technique of Tyler-Cross et at. (1993). All measurements were performed at 30° C. in 30 mM phosphate buffer, pH 7.0 with an Omega titration colorimeter (Microcal, Inc., Northampton, Mass.).
Solution phase binding isotherms were performed on the purified soluble peptides and purified fibrinogen by using isothermal titration calorimetry (Table 3). […] A change from P to F at the amino terminus lowered the dissociation constant over 150-fold. PLLVPL (SEQ ID NO:2) bound to approximately 3 to 4 sites per fibrinogen molecule. […] Both peptide binding reactions were endothermic as indicated by the positive enthalpy (ΔH), and were thermodynamically favorable (negative ΔG) under the conditions tested. Unusually high entropic terms indicate a conformational change may be driving the association of peptide with fibrinogen.

## AALVPL: peptide sequence AALVPL synthesized on A-Totda-Toyopearl (not fully specified (C-terminus))
Fibrinogen [1]; 250 μg fibrinogen applied
  2% Acetic Acid Eluate, A280: 0.02
Fibrinogen [1]; 500 μg fibrinogen applied
  2% Acetic Acid Eluate, A280: 0.09
Fibrinogen [1]; 1000 μg fibrinogen applied
  2% Acetic Acid Eluate, A280: 0.12

## ALLVPL: peptide sequence ALLVPL synthesized on A-Totda-Toyopearl (not fully specified (C-terminus))
Fibrinogen [1]; 250 μg fibrinogen applied
  2% Acetic Acid Eluate, A280: 0.02
Fibrinogen [1]; 500 μg fibrinogen applied
  2% Acetic Acid Eluate, A280: 0.09
Fibrinogen [1]; 1000 μg fibrinogen applied
  2% Acetic Acid Eluate, A280: 0.12

## FLLVPL-NH2 [FLLVPL, Phe-Leu-Leu-Val-Pro-Leu]
Fibrinogen [2]; 10 mM sodium acetate, pH 4.0 containing 0.1M NaCl (second experiment)
  applied protein eluted: 5%
Fibrinogen [2]; applied in 10 mM sodium acetate, 1.0M NaCl, 1.0 mM EGTA, pH 6.8
  applied protein (A280) not interacting with the column, recovered in flow through and wash: Approximately 7.2%
Fibrinogen [2]; elution with ionic detergent (2% sodium cholate)
  release of the applied protein: 14%
Fibrinogen [2]; elution with nonionic detergent (5% Tween-20) in the binding buffer
  release of the applied protein: 40%
Fibrinogen [2]; linear pH gradient (pH 6.8 to 12.0)
  fibrinogen released: approximately 25%
Fibrinogen [2]; low ionic strength, 10 mM sodium acetate, pH 4.0, after high salt application
  protein released: approximately 78.3%
Fibrinogen [2]; pH 6.8, 1.0 mM EGTA, column equilibrated with 0.1, 0.2 or 1.0M NaCl
  applied absorbance (280 nm) that failed to bind the column: 5 to 8%
Fibrinogen [2]; pH gradient from 6.8 to 4.0, release at pH 4.2
  release of fibrinogen: approximately 66%
Fibrinogen [2]; pH increased to 10 with 10 mM sodium borate
  applied fibrinogen eluted: approximately 8%
Fibrinogen [3]
  Kd: 4.5 µM

## PALVPL: peptide sequence PALVPL synthesized on A-Totda-Toyopearl (not fully specified (C-terminus))
Fibrinogen [1]; 250 μg fibrinogen applied
  2% Acetic Acid Eluate, A280: 0.01
Fibrinogen [1]; 500 μg fibrinogen applied
  2% Acetic Acid Eluate, A280: 0.06
Fibrinogen [1]; 1000 μg fibrinogen applied
  2% Acetic Acid Eluate, A280: 0.13

## PLLVPL-NH2 [PLLVPL, Pro-Leu-Leu-Val-Pro-Leu]
Fibrinogen [3]
  Kd: 688 µM

## Phe-Ala-Leu-Val- Pro-Leu (FALVPL; not fully specified (C-terminus); printed as Phe-Ala-Leu-Val-Pro-Leu)
Fibrinogen [1]; 250 μg fibrinogen applied
  2% Acetic Acid Eluate, A280: 0.72
Fibrinogen [1]; 500 μg fibrinogen applied
  2% Acetic Acid Eluate, A280: 1.35
Fibrinogen [1]; 1000 μg fibrinogen applied
  2% Acetic Acid Eluate, A280: 2.78

## Phe-Leu-Leu-Val (FLLV; printed: Phe-Leu-Leu-Val) [truncation of FLLVPL on A-Totda-Toyopearl resin]
Fibrinogen [1]; 250 μg fibrinogen applied
  1 M NaCl Eluate, integration of the absorbance at 280 nm: 0.00 ×10^6
  2% Acetic Acid Eluate, integration of the absorbance at 280 nm: 1.51 ×10^6
Fibrinogen [1]; 500 μg fibrinogen applied
  1 M NaCl Eluate, integration of the absorbance at 280 nm: 0.00 ×10^6
  2% Acetic Acid Eluate, integration of the absorbance at 280 nm: 1.79 ×10^6
Fibrinogen [1]; 1000 μg fibrinogen applied
  1 M NaCl Eluate, integration of the absorbance at 280 nm: 0.50 ×10^6
  2% Acetic Acid Eluate, integration of the absorbance at 280 nm: 4.99 ×10^6
